Test results as given in patent publication US20180250395A1 (Janssen / Centocor, published 2018).
Where a chain is given by its changes, count along the chain named.

B1: C47B213 (antibody, V domains shown)
VH: EVQLVQSGAEVKKPGESLKISCKGSGYSFDDSWIGWVRQMPGKGLEWMGIIYPGDSDTRYSPSFQGQVTISADKSISTAYLQWSSLKASDTAVYYCARVGRFASHQLDYWGQGTLVTVSS
VL: EIVLTQSPATLSLSPGERATLSCRASQSVNKALAWYQQKPGQAPRLLIYGASNRATGIPARFSGSGSGTDFTLTISSLEPEDFAVYYCQQGKGWPFTFGQGTKVEIK
notes: human IgG2sigma/kappa
B2: C47B236 (antibody, V domains shown)
VH: B1 VH with D30K, S32D
VL: B1 VL
notes: human IgG2sigma/kappa
B3: C47B219 (antibody, V domains shown)
VH: B1 VH with D30T
VL: B1 VL with N30G, K31S, A32R, G50W, N53T, K92A, G93Y
notes: human IgG2sigma/kappa
B4: C47B221 (antibody, V domains shown)
VH: B1 VH with D30T, S32Y
VL: B1 VL
notes: human IgG2sigma/kappa
B5: C47B218 (antibody, V domains shown)
VH: B1 VH with D30T
VL: B1 VL with K31N, A32R, Y49H, G50W, N53T, T56I, K92A, G93S
notes: human IgG2sigma/kappa
B6: C47B228 (antibody, V domains shown)
VH: B1 VH with S32Y
VL: B1 VL with N30S, K31N, A32R, L33Q, Y49H, G50S, K92R, G93S
notes: human IgG2sigma/kappa
B7: C47B235 (antibody, V domains shown)
VH: B1 VH with S32Y, G35S
VL: B1 VL
notes: human IgG2sigma/kappa
B8: C47B229 (antibody, V domains shown)
VH: B1 VH with S32A
VL: B1 VL
notes: human IgG2sigma/kappa
B9: C47B239 (antibody, V domains shown)
VH: B1 VH with D30T, D31S, S32Y, V93M
VL: B1 VL with N30S, K31N, A32R, K92R, G93S
notes: human IgG2sigma/kappa
B10: C47B223 (antibody, V domains shown)
VH: B1 VH with D30T, S32Y
VL: B1 VL with N30G, K31S, A32R, G50W, N53T, K92A, G93Y
notes: human IgG2sigma/kappa
B11: C47B231 (antibody, V domains shown)
VH: B1 VH with D30T, D31N, S32Y
VL: B1 VL
notes: human IgG2sigma/kappa
B12: C47B237 (antibody, V domains shown)
VH: B1 VH with D30T, D31S, S32Y, V93M
VL: B1 VL with K31N, A32R, Y49H, G50W, N53T, T56I, K92A, G93S
notes: human IgG2sigma/kappa
B13: C47B224 (antibody, V domains shown)
VH: B1 VH with D30T, S32Y
VL: B1 VL with N30S, K31N, A32R, L33Q, Y49H, G50S, K92R, G93S
notes: human IgG2sigma/kappa
B14: C47B233 (antibody, V domains shown)
VH: B1 VH with D30T, D31N, S32Y
VL: B1 VL with N30G, K31S, A32R, G50W, N53T, K92A, G93Y
notes: human IgG2sigma/kappa
B15: C47B217 (antibody, V domains shown)
VH: B1 VH with D30T
VL: B1 VL
notes: human IgG2sigma/kappa
B16: C47B230 (antibody, V domains shown)
VH: B1 VH with D30T, S32D
VL: B1 VL
notes: human IgG2sigma/kappa
B17: C47B220 (antibody, V domains shown)
VH: B1 VH with D30T
VL: B1 VL with N30S, K31N, A32R, L33Q, Y49H, G50S, K92R, G93S
notes: human IgG2sigma/kappa
B18: C47B226 (antibody, V domains shown)
VH: B1 VH with S32Y
VL: B1 VL with K31N, A32R, Y49H, G50W, N53T, T56I, K92A, G93S
notes: human IgG2sigma/kappa; also called C27B226
B19: C47B227 (antibody, V domains shown)
VH: B1 VH with S32Y
VL: B1 VL with N30G, K31S, A32R, G50W, N53T, K92A, G93Y
notes: human IgG2sigma/kappa
B20: C47B215 (antibody, V domains shown)
VH: B1 VH
VL: B1 VL with N30G, K31S, A32R, G50W, N53T, K92A, G93Y
notes: human IgG2sigma/kappa
B21: C47B238 (antibody, V domains shown)
VH: B1 VH with D30T, D31S, S32Y, V93M
VL: B1 VL with N30G, K31S, A32R, G50W, N53T, K92A, G93Y
notes: human IgG2sigma/kappa
B22: C47B214 (antibody, V domains shown)
VH: B1 VH
VL: B1 VL with K31N, A32R, Y49H, G50W, N53T, T56I, K92A, G93S
notes: human IgG2sigma/kappa
B23: C47B216 (antibody, V domains shown)
VH: B1 VH
VL: B1 VL with N30S, K31N, A32R, L33Q, Y49H, G50S, K92R, G93S
notes: human IgG2sigma/kappa
B24: C47B232 (antibody, V domains shown)
VH: B1 VH with D30T, D31N, S32Y
VL: B1 VL with K31N, A32R, Y49H, G50W, N53T, T56I, K92A, G93S
notes: human IgG2sigma/kappa
B25: C47B244 (antibody, V domains shown)
VH: B1 VH with S32Y
VL: B1 VL with N30S, K31N, A32R, K92R, G93S
notes: human IgG2sigma/kappa
B26: C47B234 (antibody, V domains shown)
VH: B1 VH with D31N, S32Y
VL: B1 VL
notes: human IgG2sigma/kappa
B27: C47B222 (human IgG2sigma) (antibody, V domains shown)
VH: B1 VH with D30T, S32Y
VL: B1 VL with K31N, A32R, Y49H, G50W, N53T, T56I, K92A, G93S
notes: human IgG2sigma/kappa; also called IgG2 Fc-silent C47B222
B28: C47B225 (antibody, V domains shown)
VH: B1 VH with S32Y
VL: B1 VL
notes: human IgG2sigma/kappa
B29: C47B240 (antibody, V domains shown)
VH: B1 VH with D30T, D31S, S32Y, V93M
VL: B1 VL with N30S, K31N, A32R, L33Q, Y49H, G50S, K92R, G93S
notes: human IgG2sigma/kappa
B30: C47B242 (antibody, V domains shown)
VH: B1 VH with D30T
VL: B1 VL with N30S, K31N, A32R, K92R, G93S
notes: human IgG2sigma/kappa
B31: C47B241 (antibody, V domains shown)
VH: B1 VH
VL: B1 VL with N30S, K31N, A32R, K92R, G93S
notes: human IgG2sigma/kappa
B32: C47B243 (antibody, V domains shown)
VH: B1 VH with D30T, S32Y
VL: B1 VL with N30S, K31N, A32R, K92R, G93S
notes: human IgG2sigma/kappa

Biological target: T1, recombinant human CD47 extracellular domain (ECD), His-tagged, monomer (human, UniProt Q08722 19-141)
T1 construct: C-terminal 6xHis tag; monomeric fraction from Superdex 200; also called human CD47 ECD; CD47-ECD monomer
Assay: ProteOn SPR; mAb captured, ECD monomer as analyte

| Binder | Kd [nM] |
| --- | --- |
| B1 | 2.33 |
| B2 | 2.92 |
| B3 | 2.58 |
| B4 | 5.21 |
| B5 | 2.56 |
| B6 | 2.69 |
| B7 | 2.35 |
| B8 | 2.15 |
| B9 | 6.69 |
| B10 | 1.14 |
| B11 | 11.3 |
| B12 | 2.57 |
| B13 | 2.46 |
| B14 | 3.9 |
| B15 | 7.67 |
| B16 | 1.99 |

| Binder | Kd [nM] |
| --- | --- |
| B17 | 4.3 |
| B18 | 0.872 |
| B19 | 0.902 |
| B20 | 2.05 |
| B21 | 3.53 |
| B22 | 2.3 |
| B23 | 3.35 |
| B24 | 2.8 |
| B25 | 2.12 |
| B26 | 4.49 |
| B27 | 1.12 |
| B28 | 3.31 |
| B29 | 8.59 |
| B30 | 3.47 |
| B31 | 2.62 |
| B32 | 2.02 |

Biological target: T2, Cyno CD47 ECD protein, His-tagged, monomer (cyno)
T2 construct: extracellular domain; also called cynomolgus CD47
Assay: ProteOn SPR; mAb captured, ECD monomer as analyte

| Binder | Kd [nM] |
| --- | --- |
| B1 | 4.25 |
| B2 | 14.6 |
| B3 | 1.66 |
| B4 | 4.5 |
| B5 | 1.58 |
| B6 | 2.53 |
| B7 | 3.06 |
| B8 | 8.32 |
| B9 | 9.7 |
| B10 | 0.807 |
| B11 | 12.3 |
| B12 | 3.51 |
| B13 | 2.19 |
| B14 | 3.02 |
| B15 | 5.56 |
| B16 | 7.28 |

| Binder | Kd [nM] |
| --- | --- |
| B17 | 3.74 |
| B18 | 0.543 |
| B19 | 0.574 |
| B20 | 1.44 |
| B21 | 3.73 |
| B22 | 1.4 |
| B23 | 2.74 |
| B24 | 2.42 |
| B25 | 1.55 |
| B26 | 7.93 |
| B27 | 0.842 |
| B28 | 3.76 |
| B29 | 9.23 |
| B30 | 3.46 |
| B31 | 2.03 |
| B32 | 2.08 |

Biological target: T3, recombinant human CD47 extracellular domain (ECD), His-tagged, dimer (human, UniProt Q08722 19-141)
T3 construct: Dimeric fraction of the same His-tagged ECD; also called His-tagged CD47-ECD dimer protein
Assay: MSD; CD47-ECD dimer binding to captured SIRP alpha-Fc, mAb 10 µg/ml

| Binder | % SIRP alpha Inhibition [%] |
| --- | --- |
| B1 | 71.6 |
| B2 | 9.8 |
| B3 | 99.4 |
| B4 | 95 |
| B5 | 98.9 |
| B6 | 99.3 |
| B7 | 99.9 |
| B8 | 16.1 |
| B9 | 96.7 |
| B10 | 100 |
| B11 | 83.7 |
| B12 | 97.9 |
| B13 | 99.7 |
| B14 | 98.4 |
| B15 | 83.1 |
| B16 | 28.4 |

| Binder | % SIRP alpha Inhibition [%] |
| --- | --- |
| B17 | 98.6 |
| B18 | 100 |
| B19 | 100 |
| B20 | 99.6 |
| B21 | 99.1 |
| B22 | 99.7 |
| B23 | 99.8 |
| B24 | 99.6 |
| B25 | 99.8 |
| B26 | 86.6 |
| B27 | 99.9 |
| B28 | 96.3 |
| B29 | 93 |
| B30 | 99.1 |
| B31 | 99.8 |
| B32 | 99.8 |

Biological target: T2, Cyno CD47 ECD protein, His-tagged, …
Assay: ProteOn SPR; cyno KD / human KD

| Binder | KD Ratio Cyno/Human |
| --- | --- |
| B1 | 1.8 |
| B2 | 5 |
| B3 | 0.6 |
| B4 | 0.9 |
| B5 | 0.6 |
| B6 | 0.9 |
| B7 | 1.3 |
| B8 | 3.9 |
| B9 | 1.4 |
| B10 | 0.7 |
| B11 | 1.1 |
| B12 | 1.4 |
| B13 | 0.9 |
| B14 | 0.8 |
| B15 | 0.7 |
| B16 | 3.7 |

| Binder | KD Ratio Cyno/Human |
| --- | --- |
| B17 | 0.9 |
| B18 | 0.6 |
| B19 | 0.6 |
| B20 | 0.7 |
| B21 | 1.1 |
| B22 | 0.6 |
| B23 | 0.8 |
| B24 | 0.9 |
| B25 | 0.7 |
| B26 | 1.8 |
| B27 | 0.8 |
| B28 | 1.1 |
| B29 | 1.1 |
| B30 | 1 |
| B31 | 0.8 |
| B32 | 1 |
